ChEMBL document CHEMBL2073889, “ATP-dependent transport of beta-estradiol 17-(beta-D-glucuronide) in rat canalicular membrane vesicles” (Am J Physiol, 1996)

Substrate: C[C@]12CC[C@@H]3c4ccc(O)cc4CC[C@H]3[C@@H]1CC[C@@H]2O[C@@H]1O[C@H](C(=O)O)[C@@H](O)[C@H](O)[C@H]1O
Assay: TP_TRANSPORTER: uptake in bile canalicular membrane vesicles from SD rat
Assay type: functional, cell membranes, Sprague-Dawley, Bile canalicular membrane vesicle

B1: ATP-binding cassette sub-family C member 2 (Rattus norvegicus) (protein)
chain: MDKFCNSTFWDLSLLESPEADLPLCFEQTVLVWIPLGFLWLLAPWQLYSVYRSRTKRSSITKFYLAKQVFVVFLLILAAIDLSLALTEDTGQATVPPVRYTNPILYLCTWLLVLAVQHSRQWCVRKNSWFLSLFWILSVLCGVFQFQTLIRALLKDSKSNMAYSYLFFVSYGFQIVLLILTAFSGPSDSTQTPSVTASFLSSITFSWYDRTVLKGYKHPLTLEDVWDIDEGFKTRSVTSKFEAAMTKDLQKARQAFQRRLQKSQRKPEATLHGLNKKQSQSQDVLVLEEAKKKSEKTTKDYPKSWLIKSLFKTFHVVILKSFILKLIHDLLVFLNPQLLKLLIGFVKSSNSYVWFGYICAILMFAVTLIQSFCLQSYFQHCFVLGMCVRTTVMSSIYKKALTLSNLARKQYTIGETVNLMSVDSQKLMDATNYMQLVWSSVIQITLSIFFLWRELGPSILAGVGVMVLLIPVNGVLATKIRNIQVQNMKNKDKRLKIMNEILSGIKILKYFAWEPSFQEQVQGIRKKELKNLLRFGQLQSLLIFILQITPILVSVVTFSVYVLVDSANVLNAEKAFTSITLFNILRFPLSMLPMVTSSILQASVSVDRLERYLGGDDLDTSAIRRVSNFDKAVKFSEASFTWDPDLEATIQDVNLDIKPGQLVAVVGTVGSGKSSLVSAMLGEMENVHGHITIQGSTAYVPQQSWIQNGTIKDNILFGSEYNEKKYQQVLKACALLPDLEILPGGDMAEIGEKGINLSGGQKQRVSLARAAYQDADIYILDDPLSAVDAHVGKHIFNKVVGPNGLLAGKTRIFVTHGIHFLPQVDEIVVLGKGTILEKGSYRDLLDKKGVFARNWKTFMKHSGPEGEATVNNDSEAEDDDDGLIPTMEEIPEDAASLAMRRENSLRRTLSRSSRSSSRRGKSLKNSLKIKNVNVLKEKEKEVEGQKLIKKEFVETGKVKFSIYLKYLQAVGWWSILFIILFYGLNNVAFIGSNLWLSAWTSDSDNLNGTNNSSSHRDMRIGVFGALGLAQGICLLISTLWSIYACRNASKALHGQLLTNILRAPMRFFDTTPTGRIVNRFSGDISTVDDLLPQTLRSWMMCFFGIAGTLVMICMATPVFAIIIIPLSILYISVQVFYVATSRQLRRLDSVTKSPIYSHFSETVTGLPIIRAFEHQQRFLAWNEKQIDINQKCVFSWITSNRWLAIRLELVGNLVVFCSALLLVIYRKTLTGDVVGFVLSNALNITQTLNWLVRMTSEAETNIVAVERISEYINVENEAPWVTDKRPPADWPRHGEIQFNNYQVRYRPELDLVLKGITCNIKSGEKVGVVGRTGAGKSSLTNCLFRILESAGGQIIIDGIDVASIGLHDLRERLTIIPQDPILFSGSLRMNLDPFNKYSDEEVWRALELAHLRSFVSGLQLGLLSEVTEGGDNLSIGQRQLLCLGRAVLRKSKILVLDEATAAVDLETDSLIQTTIRKEFSQCTVITIAHRLHTIMDSDKIMVLDNGKIVEYGSPEELLSNRGSFYLMAKEAGIENVNHTEL
- Km: 75 µM
